Substitutions are numbered along the chain they refer to. One block for each binder: values may come before it.
Target: T1, KRAS G13D (G13D-RT6) peptide on HLA-DQA1*05:01 / HLA-DQB1*03:01 (human)
T1 chain: YKLVVVGAGDVGKSAL
Experiment: NFAT-luciferase; Jurkat-NFAT-Luc with the TCR and Lovo-DPA0301:DPB0501 cells loaded with G13D-RT6; against wild-type B8.2.4 TCR; full-length, on cells
Conditions: chains Valpha:Vbeta

B3: B8.2.4 TCR mutant β98P-M (protein)
chain 1: AQKITQTQPGMFVQEKEAVTLDCTYDTSDPSYGLFWYKQPSSGEMIFLIYQGSYDQQNATEGRYSLNFQKARKSANLVISASQLGDSAMYFCAMRERTGTASKLTFGTGTRLQVTL
chain 2: DVKVTQSSRYLVKRTGEKVFLECVQDMDHENMFWYRQDPGLGLRLIYFSYDVKMKEKGDIPEGYSVSREKKERFSLILESASTNQTSMYLCASSQTVMPQHFGDGTRLSIL
TCR Mut RLU/WT RLU: 0.83

B9: B8.2.4 TCR mutant β95Q-C (protein)
chain 1: B3 chain 1
chain 2: B3 chain 2 with Q95C, M98P
TCR Mut RLU/WT RLU: 1.14

B10: B8.2.4 TCR mutant β98P-D (protein)
chain 1: B3 chain 1
chain 2: B3 chain 2 with M98D
TCR Mut RLU/WT RLU: 0.8

B11: B8.2.4 TCR mutant β98P-V (protein)
chain 1: B3 chain 1
chain 2: B3 chain 2 with M98V
TCR Mut RLU/WT RLU: 0.63

B12: B8.2.4 TCR mutant β95Q-N (protein)
chain 1: B3 chain 1
chain 2: B3 chain 2 with Q95N, M98P
TCR Mut RLU/WT RLU: 0.6

B15: B8.2.4 TCR mutant β95Q-M (protein)
chain 1: B3 chain 1
chain 2: B3 chain 2 with Q95M, M98P
TCR Mut RLU/WT RLU: 0.99

B16: B8.2.4 TCR mutant β98P-F (protein)
chain 1: B3 chain 1
chain 2: B3 chain 2 with M98F
TCR Mut RLU/WT RLU: 0.96

B17: B8.2.4 TCR mutant β95Q-H (protein)
chain 1: B3 chain 1
chain 2: B3 chain 2 with Q95H, M98P
TCR Mut RLU/WT RLU: 0.68

B18: B8.2.4 TCR mutant β95Q-V (protein)
chain 1: B3 chain 1
chain 2: B3 chain 2 with Q95V, M98P
TCR Mut RLU/WT RLU: 0.76

B20: B8.2.4 TCR mutant β98P-W (protein)
chain 1: B3 chain 1
chain 2: B3 chain 2 with M98W
TCR Mut RLU/WT RLU: 0.81

B22: B8.2.4 TCR mutant β95Q-E (protein)
chain 1: B3 chain 1
chain 2: B3 chain 2 with Q95E, M98P
TCR Mut RLU/WT RLU: 0.81

B25: B8.2.4 TCR mutant β98P-H (protein)
chain 1: B3 chain 1
chain 2: B3 chain 2 with M98H
TCR Mut RLU/WT RLU: 0.6

B26: B8.2.4 TCR mutant β97V-I (protein)
chain 1: B3 chain 1
chain 2: B3 chain 2 with V97I, M98P
TCR Mut RLU/WT RLU: 0.61

Other lines, results leading:

TCR Mut RLU/WT RLU: 0.86
B1: B8.2.4 TCR mutant β95Q-A (protein)
chain 1: B3 chain 1
chain 2: B3 chain 2 with Q95A, M98P

TCR Mut RLU/WT RLU: 0.94
B2: B8.2.4 TCR mutant β98P-S (protein)
chain 1: B3 chain 1
chain 2: B3 chain 2 with M98S

TCR Mut RLU/WT RLU: 0.6
B4: B8.2.4 TCR mutant β95Q-D (protein)
chain 1: B3 chain 1
chain 2: B3 chain 2 with Q95D, M98P

TCR Mut RLU/WT RLU: 0.92
B5: B8.2.4 TCR mutant β95Q-Y (protein)
chain 1: B3 chain 1
chain 2: B3 chain 2 with Q95Y, M98P

TCR Mut RLU/WT RLU: 0.98
B6: B8.2.4 TCR mutant β97V-T (protein)
chain 1: B3 chain 1
chain 2: B3 chain 2 with V97T, M98P

TCR Mut RLU/WT RLU: 0.88
B7: B8.2.4 TCR mutant β95Q-W (protein)
chain 1: B3 chain 1
chain 2: B3 chain 2 with Q95W, M98P

TCR Mut RLU/WT RLU: 0.59
B8: B8.2.4 TCR mutant β95Q-T (protein)
chain 1: B3 chain 1
chain 2: B3 chain 2 with Q95T, M98P

TCR Mut RLU/WT RLU: 0.74
B13: B8.2.4 TCR mutant β95Q-I (protein)
chain 1: B3 chain 1
chain 2: B3 chain 2 with Q95I, M98P

TCR Mut RLU/WT RLU: 0.78
B14: B8.2.4 TCR mutant β97V-S (protein)
chain 1: B3 chain 1
chain 2: B3 chain 2 with V97S, M98P

TCR Mut RLU/WT RLU: 0.67
B19: B8.2.4 TCR mutant β98P-L (protein)
chain 1: B3 chain 1
chain 2: B3 chain 2 with M98L

TCR Mut RLU/WT RLU: 1.03
B21: B8.2.4 TCR mutant β95Q-G (protein)
chain 1: B3 chain 1
chain 2: B3 chain 2 with Q95G, M98P

TCR Mut RLU/WT RLU: 1.11
B23: B8.2.4 TCR mutant β98P-C (protein)
chain 1: B3 chain 1
chain 2: B3 chain 2 with M98C

TCR Mut RLU/WT RLU: 0.73
B24: B8.2.4 TCR mutant β98P-R (protein)
chain 1: B3 chain 1
chain 2: B3 chain 2 with M98R

TCR Mut RLU/WT RLU: 0.73
B27: B8.2.4 TCR mutant β98P-G (protein)
chain 1: B3 chain 1
chain 2: B3 chain 2 with M98G

Reference: US20240123070A1, “EPITOPE PEPTIDE OF RAS G13D MUTANT AND T CELL RECEPTOR RECOGNIZING RAS G13D MUTANT” (SHANGHAI GENBASE BIOTECHNOLOGY CO., LTD., priority 2021, published 2024)
